According to the supplement of paper PMC10567573:

B1: NCF4 (parent)
chain: FVKILKDFPEEDDPTNWLRCYYYE
B2: DCAF4 (parent)
chain: PGIDRPGMLCSFRIPGAWSCAWSL

Variants of: B1
Assay: protein stability index of a GFP-peptide fusion (GPS, HEK-293T) (PSI 1-6); higher = more stable
Conditions: c terminus: a fixed tail appended
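Further: lentivirally expressed fusions sorted by FACS into six bins by GFP to DsRed ratio, PSI derived from sequencing read proportions per bin multiplied by bin number.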

| Variant | protein stability index |
| --- | --- |
| E24M | 2.05 |
| E24G | 1.54 |
| E24A | 2.33 |
| E24C | 3.79 |
| K3P | 2.45 |
| K3Q | 2.05 |
| K3N | 2.31 |
| K3D | 2.11 |
| F8M | 3.67 |
| F8K | 1.8 |
| F8I | 1.25 |
| F8R | 1.69 |
| F8Q | 1.67 |
| F8E | 1.14 |
| F8G | 1.18 |
| Y21R | 1.9 |
| Y21Q | 1.93 |
| L18R | 1.9 |
| L18M | 1.72 |
| L18Q | 1.73 |
| L18C | 1.58 |
| Y22Q | 3.25 |
| Y22V | 1.03 |
| Y22D | 2.29 |

| Variant | protein stability index |
| --- | --- |
| Y22T | 2.94 |
| Y22L | 2.24 |
| Y22M | 2.33 |
| V2L | 1.76 |
| V2G | 2.24 |
| V2S | 1.62 |
| V2I | 1.46 |
| V2Q | 3.03 |
| V2P | 2.82 |
| V2N | 2.11 |
| V2D | 2.05 |
| D12M | 2.39 |
| E10V | 1.62 |
| E10R | 1.7 |
| E10Q | 2.48 |
| E10S | 1.77 |
| E10D | 1.16 |
| F1I | 2.09 |
| F1N | 2.96 |
| F1L | 2.17 |
| F1Q | 2.56 |
| F1R | 2.25 |
| I4M | 2.39 |
| I4T | 1.54 |

| Variant | protein stability index |
| --- | --- |
| I4P | 2.15 |
| I4Q | 2.15 |
| I4W | 3.72 |
| I4K | 3.09 |
| I4A | 1.61 |
| C20A | 1.58 |
| C20V | 1.72 |
| C20S | 1.96 |
| C20D | 1.79 |
| C20R | 2.12 |
| C20W | 1.5 |
| C20T | 2.38 |
| C20P | 1.23 |
| C20M | 2.02 |
| W17P | 1.54 |
| W17L | 1.74 |
| W17E | 1.91 |
| W17Q | 1.89 |
| W17S | 1.52 |
| Y23Q | 1.73 |
| Y23E | 2.52 |
| Y23A | 1.75 |
| Y23N | 1.51 |
| Y23K | 1.73 |

| Variant | protein stability index |
| --- | --- |
| T15S | 2.14 |
| T15R | 3.22 |
| T15A | 2.18 |
| T15F | 1.79 |
| T15C | 1.88 |
| T15Y | 1.84 |
| T15K | 1.93 |
| T15M | 2.32 |
| P14A | 2.72 |
| P14W | 2.21 |
| P14K | 1.9 |
| P14D | 2.76 |
| P14I | 1.15 |
| P14H | 3.08 |
| P14E | 3.08 |
| P14G | 2.52 |
| P14S | 2.5 |
| P14C | 1.19 |
| P14Y | 1.3 |
| P14F | 1.24 |
| E11K | 1.39 |
| E11F | 3.95 |
| E11S | 1.71 |
| E11R | 1.75 |

| Variant | protein stability index |
| --- | --- |
| E11W | 2.04 |
| E11I | 2.4 |
| E11Y | 1.96 |
| E11D | 1.88 |
| L5R | 2.09 |
| L5P | 2.95 |
| L5T | 2.17 |
| R19H | 3.89 |
| R19K | 4.32 |
| R19T | 2.28 |
| R19M | 2.31 |
| R19F | 2.28 |
| R19D | 2.32 |
| R19I | 1.84 |
| R19C | 1.01 |
| R19Q | 1.42 |
| R19V | 1.74 |
| R19E | 1.56 |
| N16C | 3.04 |
| N16P | 2.55 |
| N16M | 2.61 |
| N16V | 1.82 |
| N16E | 2.71 |
| N16F | 2.41 |

| Variant | protein stability index |
| --- | --- |
| N16W | 1.58 |
| P9Y | 1.38 |
| P9M | 2.75 |
| P9T | 1.73 |
| P9E | 1.74 |
| P9K | 1.37 |
| P9N | 2.15 |
| P9C | 1.26 |
| P9R | 1.6 |
| P9A | 2.67 |
| K6P | 1.56 |
| K6T | 1.95 |
| K6D | 1.96 |
| K6N | 3.4 |
| K6Q | 1.97 |
| K6V | 3.01 |
| D13Q | 2.12 |
| D13E | 2.69 |
| D13S | 2.46 |
| D13W | 3.15 |

Variants of: B2
Assay: as above
Conditions: c terminus: a fixed tail appended

| Variant | protein stability index |
| --- | --- |
| P15L | 2.04 |
| P15Q | 4.94 |
| P15Y | 3.12 |
| P15K | 3.5 |
| P15H | 3.44 |
| P15E | 3.99 |
| P15F | 3.83 |
| P15M | 2.89 |
| P15S | 2.74 |
| P15C | 2.96 |
| P15I | 2.28 |
| P15N | 2.56 |
| P15V | 1.8 |
| S23Y | 3.52 |
| S23P | 2.55 |
| S23T | 2.5 |
| S23A | 2.91 |
| S23N | 2.36 |
| S23F | 2 |
| S23C | 1.89 |
| S23V | 2.27 |
| S23I | 1.75 |
| S23W | 2.88 |
| S23D | 2.39 |
| S23Q | 3.24 |

| Variant | protein stability index |
| --- | --- |
| S23K | 2.47 |
| S23G | 3.64 |
| S23L | 3.01 |
| S23E | 3.03 |
| W22R | 2.27 |
| W22V | 1.44 |
| W22Q | 3.24 |
| W22S | 1.33 |
| W22M | 3.58 |
| W22C | 1.62 |
| W22N | 1.6 |
| W22G | 1.95 |
| W22P | 1.19 |
| W22L | 2.58 |
| W22H | 1.74 |
| W22D | 1.5 |
| W22K | 1.84 |
| W22T | 1.95 |
| W22E | 2.01 |
| W22I | 3.25 |
| W22A | 2.54 |
| W22F | 2.7 |
| A17D | 3.01 |
| A17Y | 2.95 |
| A17R | 3 |

| Variant | protein stability index |
| --- | --- |
| A17E | 3.28 |
| A17L | 2.79 |
| A17F | 2.16 |
| A17G | 3.29 |
| A17N | 2.48 |
| A17T | 1.77 |
| A17I | 2.79 |
| A17S | 4.12 |
| A17P | 1.61 |
| A17Q | 2.13 |
| A17C | 2.26 |
| A17M | 3.08 |
| C20N | 2.15 |
| C20D | 2.11 |
| C20H | 2.41 |
| C20S | 3.33 |
| C20G | 2.95 |
| C20W | 3.93 |
| C20M | 3.55 |
| C20L | 3.41 |
| C20I | 2.77 |
| C20K | 1.81 |
| C20E | 1.7 |
| C20V | 2.58 |
| C20Q | 1.56 |

| Variant | protein stability index |
| --- | --- |
| C20F | 4.57 |
| C20T | 2.61 |
| C20P | 3.17 |
| C20R | 1.52 |
| W18E | 1.68 |
| W18T | 2.63 |
| W18M | 2.71 |
| W18L | 2.87 |
| W18V | 3.98 |
| W18Y | 3.06 |
| W18C | 2.32 |
| W18R | 3.25 |
| W18Q | 2.21 |
| W18D | 1.76 |
| W18N | 2.54 |
| W18H | 2.73 |
| W18A | 3.12 |
| W18G | 2.18 |
| W18S | 2.36 |
| W18P | 2.33 |
| W18K | 2.9 |
| L24F | 3.21 |
| L24T | 3.74 |
| L24Y | 1.96 |
| L24H | 2.96 |

| Variant | protein stability index |
| --- | --- |
| L24A | 3.62 |
| L24R | 1.47 |
| L24W | 3.59 |
| L24D | 2.85 |
| L24N | 2.87 |
| L24I | 2.42 |
| L24S | 2.15 |
| L24Q | 1.31 |
| L24K | 2.42 |
| L24V | 2.71 |
| L24P | 2.03 |
| L24E | 1.38 |
| F12V | 3.38 |
| F12Q | 2.67 |
| F12T | 2.12 |
| F12W | 4.14 |
| F12S | 2.7 |
| A21K | 3.64 |
| A21W | 2.83 |
| A21S | 2.99 |
| A21G | 3.7 |
| A21M | 2.96 |
| A21Y | 4.31 |
| A21L | 2.32 |
| A21R | 2.22 |

| Variant | protein stability index |
| --- | --- |
| A21T | 2.69 |
| A21P | 2.54 |
| A21C | 2.48 |
| A21D | 3.1 |
| A21F | 2.37 |
| A21N | 2.85 |
| A21V | 1.91 |
| I14G | 1.54 |
| I14E | 1.76 |
| I14D | 2.83 |
| I14H | 2.46 |
| I14L | 2.47 |
| I14R | 3.12 |
| I14M | 1.82 |
| I14Y | 2.14 |
| I14Q | 2.64 |
| I14S | 2.65 |
| I14A | 1.77 |
| I14W | 2.12 |
| I14N | 1.5 |
| I14K | 1.68 |
| I14C | 1.79 |
| I14F | 2.32 |
| S19P | 1.66 |
| S19K | 4.35 |

| Variant | protein stability index |
| --- | --- |
| S19A | 3.16 |
| S19L | 2.61 |
| S19Q | 2.74 |
| S19R | 3.46 |
| S19D | 2.11 |
| S19M | 2.51 |
| S19V | 1.55 |
| S19I | 2.23 |
| S19Y | 3.36 |
| S19G | 2.78 |
| S19H | 1.6 |
| S19E | 2.19 |
| S19T | 2.96 |
| S19W | 4.15 |
| G16L | 3.68 |
| G16Y | 2.84 |
| G16F | 2.83 |
| G16S | 3.06 |
| G16D | 2.18 |
| G16H | 4.24 |
| G16V | 2.81 |
| G16P | 3.49 |
| G16I | 3.24 |
| G16W | 1.49 |
| G16N | 2.91 |

| Variant | protein stability index |
| --- | --- |
| G16E | 3.31 |
| G16C | 2.39 |
| G16Q | 2.3 |
| G16T | 3.2 |
| G16K | 3.56 |
| G16R | 2.68 |
| R13I | 3.22 |
| R13P | 3.03 |
| R13H | 2.34 |
| R13E | 3.65 |
| R13D | 1.97 |
| R13C | 2.03 |
| R13T | 3.39 |
| R13Y | 2.9 |
| R13S | 2.59 |
| R13F | 2.68 |
| R13G | 2.33 |
| R13L | 3.69 |
| R13V | 2.94 |
